Laboratory results from US20260242478A1 (published 2026).
Where no end group is shown, it is not given here.

Assays:
[1] = target: T1, Anti-CD28 scFv (VH - linker 1 - VL) (biotinylated (site not stated)); experiment: phage ELISA; biotinylated anti-CD28 scFv on neutravidin plate, clonal phage supernatant, anti-M13-HRP detection;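 note: before phage addition, wells were pretreated with soluble CD28 protein in blocking buffer, or with blocking buffer only as the comparison, then phage were added without washing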
T1 construct: Biotinylated and captured on neutravidin-coated plates in the phage panning ELISA

[2] = target: T1, Anti-CD28 scFv (VH - linker 1 - VL); experiment: phage ELISA; biotinylated anti-CD28 scFv on neutravidin plate, wells pre-incubated with soluble CD28 as competitor, anti-M13-HRP detection
[3] = target: T2, Anti-PSMA Fab (SEQ ID NOs: 19, 20); experiment: phage binding ELISA; biotinylated anti-PSMA Fab captured on neutravidin plate, clonal phage supernatant, anti-M13 HRP detection
T2 construct: Biotinylated and captured on neutravidin coated plates in the phage ELISA; also called 006 PSMA Fab

[4] = target: T2, Anti-PSMA Fab (SEQ ID NOs: 19, 20); experiment: phage binding ELISA; Fab-coated wells pre-incubated with PSMA antigen (competitor: PSMA), then clonal phage, anti-M13 HRP detection
Ab-15 [5] = experiment: binding ELISA: biotinylated peptide on neutravidin plate, Ab-15 titrated
Ab-15 [6] = experiment: BLI (Octet): sensor loaded with 200 nM biotinylated peptide, 100 nM Ab-15;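 note: binding association and dissociation tracked in real time, fitted to a 1:1 binding model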
Ab-15 [7] = experiment: competition ELISA: peptide titrated against 1 nM Ab-15; competitor plate-bound CD28

Binder | Anti-PSMA Fab (SEQ ID NOs: 19, 20) signal [3] | Anti-PSMA Fab signal in the presence of PSMA [4] | EC50 (Ab-15 [5]) [nM] | Octet signal (Ab-15 [6]) | t1/2 (Ab-15 [6]) [min] | IC50 (Ab-15 [7]) [nM] | further results
MDWCPMSRWAFCFD (tested as crude clonal phage supernatant) [Phage-438 clonal phage peptide MDWCPMSRWAFCFD] | – | – | – | – | – | – | CD28 scFv signal [1]: 1; CD28 scFv signal in presence of CD28 [2]: 0.115
SCGWLRGEEFGWWC (tested as crude phage supernatant) [Phage-1739 (clonal phage displaying the peptide of SEQ ID NO: 2023)] | 0.891 | 0.0625 | – | – | – | – | –
MEYCSFHRFTCVLW (tested as crude phage supernatant) [Phage-1736 (clonal phage displaying the peptide of SEQ ID NO: 2020)] | 1.74 | 0.12 | – | – | – | – | –
PDCVYHSFWGYSCR (tested as crude phage supernatant) [Phage-1740 (clonal phage displaying the peptide of SEQ ID NO: 2024)] | 0.583 | 0.0641 | – | – | – | – | –
PLCGTEEVWWECRL (tested as crude phage supernatant) [Phage-1728 (clonal phage displaying the peptide of SEQ ID NO: 2012)] | 1.57 | 0.0694 | – | – | – | – | –
FCNWVDGDVWVVCK (tested as crude phage supernatant) [Phage-1734 (clonal phage displaying the peptide of SEQ ID NO: 2018)] | 0.51 | 0.0607 | – | – | – | – | –
HLFCWEGSDRCAWV (tested as crude phage supernatant) [Phage-1727 (clonal phage displaying the peptide of SEQ ID NO: 2011)] | 1.4 | 0.0753 | – | – | – | – | –
HCKFHDYHSWYMCY (tested as crude phage supernatant) [Phage-1737 (clonal phage displaying the peptide of SEQ ID NO: 2021)] | 1.58 | 0.117 | – | – | – | – | –
MDWCPRDRWDVCFA (tested as crude clonal phage supernatant) [Phage-439 clonal phage peptide MDWCPRDRWDVCFA] | – | – | – | – | – | – | CD28 scFv signal [1]: 0.924; CD28 scFv signal in presence of CD28 [2]: 0.096
IRCVGEGHDLVCIF (tested as crude phage supernatant) [Phage-1724 (clonal phage displaying the peptide of SEQ ID NO: 2008)] | 2.12 | 0.081 | – | – | – | – | –
ICQWIGATNAWVCY (tested as crude phage supernatant) [Phage-1726 (clonal phage displaying the peptide of SEQ ID NO: 2010)] | 1.82 | 0.326 | – | – | – | – | –
NCWWHDFRAGHVVC (tested as crude phage supernatant) [Phage-1723 (clonal phage displaying the peptide of SEQ ID NO: 2007)] | 2.05 | 0.0972 | – | – | – | – | –
FVPCIPSHWLCPIW (tested as crude phage supernatant) [Phage-1741 (clonal phage displaying the peptide of SEQ ID NO: 2037)] | 1.05 | 0.292 | – | – | – | – | –
ACHSLVLKHHLQKC (tested as crude phage supernatant) [Phage-1738 (clonal phage displaying the peptide of SEQ ID NO: 2022)] | 1.18 | 0.0624 | – | – | – | – | –
ADWCPRDLWVHCFA (cysteine pairing not given here; also: biotinylated, site not given here, CD28 peptide mask) [Peptide-52] | – | – | 75.9 | 0.7 | 3.1 | 2000 | –
PDWCPRDLWVHCFA (cysteine pairing not given here; also: biotinylated, site not given here, CD28 peptide mask) [Peptide-64] | – | – | 102 | 0.328 | 3.4 | 8340 | –
FDWCPRDLWVHCFA (cysteine pairing not given here; also: biotinylated, site not given here, CD28 peptide mask) [Peptide-63] | – | – | 39.3 | 1.01 | 3.3 | 780 | –

Binder | Anti-PSMA Fab (SEQ ID NOs: 19, 20) signal [3] | Anti-PSMA Fab signal in the presence of PSMA [4] | EC50 (Ab-15 [5]) [nM] | Octet signal (Ab-15 [6]) | t1/2 (Ab-15 [6]) [min] | IC50 (Ab-15 [7]) [nM] | further results
SDWCPRDLWVHCFA (cysteine pairing not given here; also: biotinylated, site not given here, CD28 peptide mask) [Peptide-65] | – | – | 66.5 | 0.551 | 2.9 | 2630 | –
LDWCPRDLWVHCFA (cysteine pairing not given here; also: biotinylated, site not given here, CD28 peptide mask) [Peptide-61] | – | – | 23.4 | 1.37 | 4.5 | 630 | –
GDWCPRDLWVHCFA (cysteine pairing not given here; also: biotinylated, site not given here, CD28 peptide mask) [Peptide-58] | – | – | 73.9 | 0.479 | 3.9 | 7060 | –
NDWCPRDLWVHCFA (cysteine pairing not given here; also: biotinylated, site not given here, CD28 peptide mask) [Peptide-54] | – | – | 84.3 | 0.434 | 4 | 5030 | –
IDWCPRDLWVHCFA (cysteine pairing not given here; also: biotinylated, site not given here, CD28 peptide mask) [Peptide-60] | – | – | 44.9 | 0.845 | 3.1 | 2660 | –
HDWCPRDLWVHCFA (cysteine pairing not given here; also: biotinylated, site not given here, CD28 peptide mask) [Peptide-59] | – | – | 45.4 | 0.737 | 3 | 2180 | –
WDWCPRDLWVHCFA (cysteine pairing not given here; also: biotinylated, site not given here, CD28 peptide mask) [Peptide-67] | – | – | 21.7 | 1.15 | 4.1 | 2800 | –
DDWCPRDLWVHCFA (cysteine pairing not given here; also: biotinylated, site not given here, CD28 peptide mask) [Peptide-55] | – | – | 86.8 | 0.461 | 4.2 | 4460 | –
SIPCIPRDWLCPIK (tested as crude phage supernatant) [Phage-1725 (clonal phage displaying the peptide of SEQ ID NO: 2009)] | 1.8 | 0.239 | – | – | – | – | –
EGCLTLVDGRAWCW (tested as crude phage supernatant) [Phage-1735 (clonal phage displaying the peptide of SEQ ID NO: 2019)] | 1.05 | 0.0521 | – | – | – | – | –
FCQWIEATNAWLCY (tested as crude phage supernatant) [Phage-1732 (clonal phage displaying the peptide of SEQ ID NO: 2016)] | 1.06 | 0.119 | – | – | – | – | –
FGHCAGSPVFCAYW (tested as crude phage supernatant) [Phage-1730 (clonal phage displaying the peptide of SEQ ID NO: 2014)] | 1.06 | 0.054 | – | – | – | – | –
FCGWMDGDVFWFCG (tested as crude phage supernatant) [Phage-1733 (clonal phage displaying the peptide of SEQ ID NO: 2017)] | 0.428 | 0.145 | – | – | – | – | –
NAHCWLWVPAHCRV (tested as crude phage supernatant) [Phage-1729 (clonal phage displaying the peptide of SEQ ID NO: 2013)] | 1.35 | 0.0672 | – | – | – | – | –
NCFFAADIHWNFCT (tested as crude phage supernatant) [Phage-1731 (clonal phage displaying the peptide of SEQ ID NO: 2015)] | 1.48 | 0.18 | – | – | – | – | –
MDWCPRDRWDDCFF (tested as crude clonal phage supernatant) [Phage-441 clonal phage peptide MDWCPRDRWDDCFF] | – | – | – | – | – | – | CD28 scFv signal [1]: 0.899; CD28 scFv signal in presence of CD28 [2]: 0.183
MDWCPRDRWVDCFN (tested as crude clonal phage supernatant) [Phage-440 clonal phage peptide MDWCPRDRWVDCFN] | – | – | – | – | – | – | CD28 scFv signal [1]: 0.911; CD28 scFv signal in presence of CD28 [2]: 0.132
